Measured values taken from patent publication US20230365684A1 (Janssen / Centocor, published 2023).

B1: C33B1780 (llama vHH on mono-Fc backbone) (Fc fusion)
chain: EVQLVESGGGLVQPGGSLRLSCAVFGFSLSDYAIGWFRQAPGKEREKVSCISESDGRTYLSDSVKSRFTISRDNGKNTVYLQMNNLKPDDTGVYYCATVDQAISESSYHCEKGFGSWGQGTQVTVSS
notes: not shown: mono-Fc backbone
B2: C33B836.006 (antibody, V domains shown)
VH: QVQLVQSGSELRKPGASVKVSCKASGYTFTNYAMNWVRQAPGQGLEWMGWINTNTGNPTYAQGFTGRFVFSLDTSVSSAYLQISSLKAEDTAMYYCATDRDRGTDYWGQGTLVTVSS
VL: QSALTQPASVSGSPGQSITISCTGTSSDVGDYNYVSWYQQHPGKVPKLMIYDVSNRPSGVSNRFSGSMSGNTASLTISGLQAEDEADYYCSSYSSSSALEVFGGGTKLTVL
notes: also called sC33B836.006
B3: C33B1477 (antibody, V domains shown)
VH: EVQLVESGGGLVQPGGSLKVSCEASGFTFSVSAIHWVRQASGKGLEWIGRIRSKGNSYATAYAASVKGRFTISRDDSKNTAYLQMDSLKTEDTAVYYCTRHNDKWNYYGLDVWGQGTTVTVSS
VL: DIVMTQSPLSLPVTPGEPASISCKSSQSLLFSNGYKFLDWYLQRPGQSPQLLIYLGSYRASGVPDRFSGSGSGTDFTLKISRVEAEDVGLYYCMQALQTPPTFGGGTKVEIK
notes: also called sCD33B1477
B4: C33B806.006 (antibody, V domains shown)
VH: QLQLQESGPGLVKPSETLSLTCTVSGGSISSSSYYWGWIRQPPGKGLDWIGSINYSGSTYYNPSLKSRVTISVDTSKIQFSLKLRSVTAADTAVYYCARLDGYESPFDYWGQGTLVTVSS
VL: DIQMTQSPSSVSASVGDRVTITCRASQGISSWLAWYQQKPGKAPKLLIYAASSLQSGVPSRFSGSGSGTDFTLTISSLQPEDFATYYCQQANSFPFTFGPGTKVDIK
B5: C33B904 (antibody, V domains shown)
VH: EVQLVESGGGLVQPGRSLRLSCAASGFTFDDYAMHWVRQAPGKGLEWVSGIGWSGGSIVYADSVKGRFTISRDNAKNSLYLQMNSLRAEDTALYYCAKDSPYGDFFDYWGQGTLVTVSS
VL: DIVMTQSPDSLAVSLGERATINCKSSQTVFYSSNNKNYLAWYQQKPGQPPKLLISWASTRKSGVPDRFSGSGSGTDFTLTVSSLQAEDVAVYYCQHYYSTPYTFGQGTKLEIK
notes: also called anti-CD33 antibody (clone C33B904); anti-CD33 clone C33B904

Tests used:
[1] = biological target: T1, human CD33 IgC2 domain, recombinant (human, UniProt P20138 136-259); experiment: SPR, Biacore 8K, 25 °C, vHH-mono-Fc captured by anti-Fc antibody, CD33-hu-domain injected as analyte, 1:1 binding model
T1 construct: domain: IgC2; also called hu CD33 (IgC2); hCD33-IgC2
Method: (§1) The binding affinity of anti-CD33 antibodies and Llama vHHs to the recombinant human CD33 (FL ECD or IgC2 domain) was determined by surface plasmon resonance (SPR) using Biacore 8K instrument. […] The association and dissociation were monitored for 2 and 30 minutes, respectively, using a flow rate of 50 μL/min. Raw binding data was referenced by subtracting the analyte binding signals from blanks and analyzed using a 1:1 Langmuir binding model using the Biacore software to obtain the kinetics which were used to calculate the binding affinity.
(§2) The anti-CD33 Llama vHHs on a mono-Fc backbone were captured using an anti-human Fc antibody and the antigens were injected in solution.

[2] = biological target: T2, human CD33 (full length ECD), recombinant (human, UniProt P20138 18-259); experiment: SPR, Biacore 8K, 25 °C, vHH-mono-Fc captured by anti-Fc antibody, CD33-hu-FL injected as analyte, 1:1 binding model [contd]
T2 construct: extracellular domain; Tag or HSA fusion partner unknown; also called hu CD33 (FL ECD); hCD33-FL ECD
Method: as §1, §2

[3] = biological target: T2, human CD33 (full length ECD), …; experiment: SPR (Biacore 8K), vHH-mono-Fc captured by anti-human Fc, antigen in solution
Method: as §1, §2

[4] = biological target: T1, human CD33 IgC2 domain, recombinant; experiment: as above
Method: as §1, §2

[5] = biological target: T3, human CD33 on cells (MOLM-13, Kasumi-1, OCI-AML-3, Kasumi-3) (human, UniProt P20138 18-364); experiment: flow cytometry on Kasumi-1 cells, 4 °C, serial dilutions of the antibody
T3 construct: whole, on cells; also called CD33 expressing cells; CD33+ cell lines
Method: (§3) Cells were harvested, washed once with PBS and then stained with the fixable viability dye at room temperature for 30 min. Following incubation, cells were washed twice with FACS buffer (PBS+2% FBS). Cells were then used for binding assay with test antibodies. 100,000 cells were stained with the test antibodies in a 100 ul staining volume. Antibodies for staining were diluted in FACS buffer and incubated with the cells for 40 mins on ice, followed by washing 2X with FACS buffer. Test antibodies were then detected using the PE conjugated Goat F(ab′)2 Anti-Human IgG-Fc (ab98596; Abcam) for 40 minutes on ice. Following washing, data was acquired on the Novocyte flow cytometer (ACEA). Cells were gated on FSC/SSC, followed by live cell gating and doublet discrimination. Data was analyzed using Flow Jo (BD).
(§4) Median fluorescence intensity values were used to plot a 4-parameter non-linear regression analysis curve after subtracting the MFI of the secondary only sample.
(§5) The binding EC₅₀ values of CD33 antibodies to high (MOLM-13), medium (Kasumi-1) and low (OCI-AML-3) cell lines were assayed. Binding was carried out at 4° C. with serial dilutions of the antibody.

[6] = biological target: T3, human CD33 on cells (MOLM-13, Kasumi-1, …); experiment: flow cytometry on OCI-AML-3 cells, 4 °C, serial dilutions of the antibody
Method: as §3, §4, §5

[7] = biological target: T3, human CD33 on cells (MOLM-13, Kasumi-1, …); experiment: flow cytometry on OCI-AML-3 cells, 4 °C, detection with PE goat F(ab')2 anti-human IgG-Fc [contd]
[8] = biological target: T3, human CD33 on cells (MOLM-13, Kasumi-1, …); experiment: flow cytometry on MOLM-13 cells, 4 °C, serial dilutions of the antibody
Method: as §3, §4, §5

[9] = biological target: T3, human CD33 on cells (MOLM-13, Kasumi-1, …); experiment: flow cytometry on MOLM-13 cells, 4 °C, detection with PE goat F(ab')2 anti-human IgG-Fc
Method: MOLM-13, Kasumi-1, OCI-AML-3 and HDLM-2 cells were stained for viability by fixable violet dead cell stain (L34955, ThermoFisher) according to the manufacturer's protocol. Cells were harvested, washed once with PBS and then stained with the fixable viability dye at room temperature for 30 min. Following incubation, cells were washed twice with FACS buffer (PBS+2% FBS). Cells were then used for binding assay with test antibodies. 100,000 cells were stained with the test antibodies in a 100 ul staining volume. Antibodies for staining were diluted in FACS buffer and incubated with the cells for 40 mins on ice, followed by washing 2X with FACS buffer. Test antibodies were then detected using the PE conjugated Goat F(ab′)2 Anti-Human IgG-Fc (ab98596; Abcam) for 40 minutes on ice. Following washing, data was acquired on the Novocyte flow cytometer (ACEA). […] Data was analyzed using Flow Jo (BD).
as §4
Binding was performed by incubating the cells with the serial dilutions of the CD33 antibody at 4° C. followed by detection with PE conjugated Goat F(ab′)2 Anti-Human IgG-Fc antibody. […] Median fluorescence intensity (MFI) versus log concentration of antibody are plotted.

[10] = biological target: T3, human CD33 on cells (MOLM-13, Kasumi-1, …); experiment: flow cytometry on OCI-AML-3 cells, 4 °C, detection with PE goat F(ab')2 anti-human IgG-Fc [contd]; remark: listed apart in the source
[11] = biological target: T3, human CD33 on cells (MOLM-13, Kasumi-1, …); experiment: FACS binding on Kasumi-1 cells
[12] = biological target: T3, human CD33 on cells (MOLM-13, Kasumi-1, …); experiment: FACS binding on OCI-AML-3 cells
[13] = biological target: T3, human CD33 on cells (MOLM-13, Kasumi-1, …); experiment: FACS binding on MOLM-13 cells

T2 sequence (P20138 18-259): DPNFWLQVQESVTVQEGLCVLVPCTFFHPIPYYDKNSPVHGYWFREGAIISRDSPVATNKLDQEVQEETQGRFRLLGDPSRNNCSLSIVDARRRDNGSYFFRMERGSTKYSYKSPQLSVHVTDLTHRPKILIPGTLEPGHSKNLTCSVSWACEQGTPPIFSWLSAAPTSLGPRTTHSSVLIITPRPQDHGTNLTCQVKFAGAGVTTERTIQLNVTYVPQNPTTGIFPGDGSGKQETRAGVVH
T3 sequence (P20138 18-364): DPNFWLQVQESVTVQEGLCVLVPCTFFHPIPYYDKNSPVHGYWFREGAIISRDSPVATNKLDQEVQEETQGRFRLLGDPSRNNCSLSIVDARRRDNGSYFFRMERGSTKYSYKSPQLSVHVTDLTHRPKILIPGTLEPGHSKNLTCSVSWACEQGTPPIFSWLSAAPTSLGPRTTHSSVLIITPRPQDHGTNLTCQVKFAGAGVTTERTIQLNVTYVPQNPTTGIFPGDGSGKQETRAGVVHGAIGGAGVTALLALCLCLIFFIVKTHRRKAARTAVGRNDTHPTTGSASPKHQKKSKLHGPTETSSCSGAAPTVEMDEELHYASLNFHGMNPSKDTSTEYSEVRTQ
T1 sequence (P20138 136-259 limits assumed): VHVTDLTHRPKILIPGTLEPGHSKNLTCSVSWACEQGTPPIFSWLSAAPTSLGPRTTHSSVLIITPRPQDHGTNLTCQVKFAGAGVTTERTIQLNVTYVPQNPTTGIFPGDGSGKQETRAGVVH

Binder	EC50 [5] [nM]	EC50 [6] [nM]	EC50 (read off the curve) [7] [µg/mL]	EC50 [8] [nM]	other results
B1	–	–	–	–	kon [1]: 962000 M⁻¹ s⁻¹; koff [2]: 0.00117 s⁻¹; kon [2]: 1.38e+06 M⁻¹ s⁻¹; Kd [3]: 0.847 nM; Kd [4]: 3.38 nM
B2	17.1	0.46	~0.08	0.5	EC50 (read off the curve) [9]: ~0.08 µg/mL
B3	–	0.6	–	56	EC50 (read off the curve) [10]: ~0.09 µg/mL
B4	0.13	15.3	~2	35.6	–
B5	–	–	–	–	EC50 [11]: 82.2 nM; EC50 [12]: 16.4 nM; EC50 [13]: 134 nM
